From patent US20150044137A1 (UNITED STATES OF AMERICA AS REPRESENTED BY THE SECRETARY …, published 2015) come the findings set out here.

In test [1] the target is T1, Yu2 gp120 HIV-1 Env protein (HIV-1 (strain Yu2), UniProt P35961 32-498).
T1 construct: domain: gp120
In words: ELISA-type plate assay (OD450), mAb titrated on Yu2 gp120 WT. Background: An ELISA detects its analyte on a solid surface through an enzyme-linked reagent.

Test [2] deals with T1, Yu2 gp120 HIV-1 Env protein.
Test [3] concerns the target RSC3 probe. In words: ELISA-type plate assay (OD450), mAb titrated on RSC3 [panel VRC14b].
For test [4], the target named is RSC3 probe. Description: ELISA-type plate assay (OD450), mAb titrated on RSC3 [panel VRC14].
For test [5], the target named is RSC3 probe. In words: ELISA-type plate assay (OD450), mAb titrated on RSC3 [panel VRC14c].

B1: VRC16b (antibody, V domains shown)
VH: EVQLSESGGGVVKPGGSLRLSCEASGFTFSNYAMSWVRQAPGKGLEWVSVTGGHGTYGYYGEFVKGRFTISRDHSMDTVYLQMNRLRVEDTAVYYCVRTPYYHESSGYYYRAGNYFDFWGKGTLVIVSA
VL: DIQMTQSPSSLSASVGDRVTITCRASQDIANYLNWYQKKSGTPPKLLIFAATNLHRGVSPRFSGSGSGTHFSLTITNVQYEDFANYFCQHSFGTIGTFGQGTWVDIR
Broadly, the EC50 (read off the curve) is the concentration needed to bring the measured effect to its halfway point. Read a low EC50 (read off the curve) as a more potent agent. Turning to B1, in test [1], the “EC50 (read off the curve)” value is about 20 ng/mL.

B2: VRC16c (antibody, V domains shown)
VH: EVQLSESGGGFVKPGGSLRLSCEASGFTFNNYAMSWVRQAPGKGLEWVSVTSAHGGSAYYGEFVKGRFTMSRDHFIDTVYLEMNRLTVEDTAVYYCVRVTFYHEGSGYYYRAGNYFDSWGKGTRVVVSA
VL: DIQMTQSPSSLSASIGDRVTITCRASQDIANYLNWYQKKSGTPPKLLIFAATNLHRGVSPRFTGSGHGTHFSLTITNVQHEDFGHYFCQQSFATVGSFGQGTWVDIR
On to B2, for which, in test [1], the 50% effective concentration (EC50 (read off the curve)) was about 5 ng/mL.

B3: VRC16d (antibody, V domains shown)
VH: EVQLSESGGGFVKPGGSLRLSCEASGFTFNNYAMSWVRQAPGKGLEWVSVTSAHGGSAYYGEFVKGRFTMSRDHFIDTVYLEMNGLTVEDTAVYYCVRVTFYHEGSGYYYRAGNYFDSWGKGTRVVVSA
VL: DIQMTQSPSSLSASIGDRVTITCRASQDIANYLNWYQKKSGTPPKLLIFAATNLHRGVSPRFTGSGHGTHFSLTITNVQHEDFGNYFCQQSFATVGSFGQGTWVDIR
Take B3: the “EC50 (read off the curve)” value in test [1] was about 5 ng/mL.

B4: VRC13 (antibody, V domains shown)
VH: QVQLVQPGTAMKSLGSSLTITCRVSGDDLGSFHFGTYFMIWVRQAPGQGLEYMGGILPSTKTPTYAHKFRGRVSISAPGVPPVLSLALTNLTYDDTATYFCARERGRHFEPKNRDNLEGKFFDLWGRGTFVRVSP
VL: QSALTQPASVSGSPGQSINISCAGRSDRVSWYQQRPNGVPKLLMFDVYRRPSGVSDRFSGSHSGDTAFLTISGLQTEDEADYYCTSHPYAFGAGTKVNVLR
Turning to B4, in test [2], the “IC50 (read off the curve)” value was about 400 ng/mL.

B5: VRC14b (antibody, V domains shown)
VH: QVQLVQSGTALKSPGSSAKLSCTVLGDEFGTYFISWIRQAPGQGLEWVGGIVPHSQLQSSAQKFHGRITISAGAGVTPPVVSLQLTNLTFEDTGTYFCARERGRHRDPKTGDALRGRYFDFWGRGTGVRVST
VL: QSALTQPAFVSGSPGQSITLSCTLGTEDVSWYQQRPNSAPRLIIFDVKKRPSDVSDRFSGHNSDTAAFLTISELRPEDEAEYFCTSWPYRFGRGTKVDVA
As for B5, in test [3], the “EC50 (read off the curve)” value is about 7 ng/mL.

B6: VRC14 (antibody, V domains shown)
VH: QVQLVQSGTALKSPGSSAKLSCTVLGDEFGTYFISWIRQAPGQGLEWVGGIVPHSQLQSSAQKFHGRIIISAGAGVTPPVVSLQLTNLTFEDTGTYFCARERGRHRDPKTGDALRGRYFDFWGRGTGLRVST
VL: QSALTQPAFVSGSPGQSITLSCSLGTADVSWYQQRPNSAPRLIIFDVKKRPSDVSDRFSGHNSDTAAFVTISELRPEDEAEYFCTSWPYRFGPGTKVDVAR
notes: also called mAb VRC14
With B6, the “EC50 (read off the curve)” value in test [4] is about 6 ng/mL.

B7: VRC14c (antibody, V domains shown)
VH: QVQLVQSGTALKSPGSSAKLSCTVLGDEFGTYFISWIRQAPGQGLEWVGGIVPHSQLQSSAQKFHGRIIISAGAGVTPPVVSLQLTNLTFEDTGTYFCARERGRHRDPKTGKAPRGRYFDFWGRGTGVTVSA
VL: QSALTQPAFVSGSPGQSITLSCTLGTEDVSWYQQRPNSAPRLIIFDVKKRPSDVSDRFSGHNSDTAAFLTISELRPEDEADYFCTSWPYRFDRGTKVDVA
For the molecule B7, in test [5], the 50% effective concentration (EC50 (read off the curve)) was about 20 ng/mL.
